Test results as given in patent US20180244758A1 (MAPP BIOPHARMACEUTICAL, published 2018).
Residue numbers refer to the chain shown, from its start.

T1: EBOV GP (Ebola virus (EBOV), UniProt Q05320 33-637)
T1 sequence: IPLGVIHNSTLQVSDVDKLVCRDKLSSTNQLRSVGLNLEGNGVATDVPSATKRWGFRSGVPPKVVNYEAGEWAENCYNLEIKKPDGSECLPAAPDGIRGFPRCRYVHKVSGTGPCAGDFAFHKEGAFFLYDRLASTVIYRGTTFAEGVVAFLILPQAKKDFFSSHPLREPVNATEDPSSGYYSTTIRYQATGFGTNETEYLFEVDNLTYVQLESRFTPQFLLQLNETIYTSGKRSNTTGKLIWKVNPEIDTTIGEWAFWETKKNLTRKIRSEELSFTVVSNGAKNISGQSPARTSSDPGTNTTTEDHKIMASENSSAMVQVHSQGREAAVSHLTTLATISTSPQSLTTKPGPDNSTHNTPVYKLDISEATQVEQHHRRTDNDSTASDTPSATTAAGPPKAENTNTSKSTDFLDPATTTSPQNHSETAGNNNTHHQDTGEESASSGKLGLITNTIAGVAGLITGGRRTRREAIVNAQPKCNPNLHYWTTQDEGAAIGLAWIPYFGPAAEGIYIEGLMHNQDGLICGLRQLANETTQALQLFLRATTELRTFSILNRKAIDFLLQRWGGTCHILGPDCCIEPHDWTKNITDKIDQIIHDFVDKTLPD

T2: EBOV GP on rVSV particles (Ebola virus (EBOV), UniProt Q05320 33-676)
T2 sequence: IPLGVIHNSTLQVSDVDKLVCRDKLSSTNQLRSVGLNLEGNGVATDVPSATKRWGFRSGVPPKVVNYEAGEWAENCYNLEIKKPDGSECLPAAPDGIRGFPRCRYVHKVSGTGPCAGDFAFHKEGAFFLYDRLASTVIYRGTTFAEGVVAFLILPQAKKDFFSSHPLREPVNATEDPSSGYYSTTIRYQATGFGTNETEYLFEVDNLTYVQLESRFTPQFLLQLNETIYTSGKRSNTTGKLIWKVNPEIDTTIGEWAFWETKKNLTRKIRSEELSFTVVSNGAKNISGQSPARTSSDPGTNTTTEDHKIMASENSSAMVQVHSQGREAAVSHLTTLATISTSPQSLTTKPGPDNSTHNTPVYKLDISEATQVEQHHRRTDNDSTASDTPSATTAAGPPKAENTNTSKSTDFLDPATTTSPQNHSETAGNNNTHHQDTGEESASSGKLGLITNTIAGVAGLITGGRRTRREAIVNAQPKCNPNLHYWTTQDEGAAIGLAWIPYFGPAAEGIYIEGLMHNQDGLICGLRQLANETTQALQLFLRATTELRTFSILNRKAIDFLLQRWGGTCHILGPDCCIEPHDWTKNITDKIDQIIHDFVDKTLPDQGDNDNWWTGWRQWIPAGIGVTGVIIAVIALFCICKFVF

T3: SUDV GP on rVSV particles (Sudan virus (SUDV), UniProt Q66814 33-676)
T3 sequence: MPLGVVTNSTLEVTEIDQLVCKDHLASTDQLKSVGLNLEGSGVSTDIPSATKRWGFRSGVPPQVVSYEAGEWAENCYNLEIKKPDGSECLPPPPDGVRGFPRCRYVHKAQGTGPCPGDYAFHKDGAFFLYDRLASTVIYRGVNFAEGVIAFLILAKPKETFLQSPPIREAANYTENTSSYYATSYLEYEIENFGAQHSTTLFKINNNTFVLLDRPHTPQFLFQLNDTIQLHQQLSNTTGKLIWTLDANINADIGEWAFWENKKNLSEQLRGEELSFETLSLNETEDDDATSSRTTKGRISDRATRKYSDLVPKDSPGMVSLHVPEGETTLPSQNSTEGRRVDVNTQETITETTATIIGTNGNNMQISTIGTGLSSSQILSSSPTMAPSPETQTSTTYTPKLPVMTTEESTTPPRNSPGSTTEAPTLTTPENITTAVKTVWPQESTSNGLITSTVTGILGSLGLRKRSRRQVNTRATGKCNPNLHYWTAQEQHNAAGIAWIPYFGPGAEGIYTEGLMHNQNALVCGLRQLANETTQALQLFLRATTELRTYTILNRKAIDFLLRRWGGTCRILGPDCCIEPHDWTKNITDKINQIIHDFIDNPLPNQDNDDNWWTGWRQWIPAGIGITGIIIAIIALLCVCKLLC

T4: TAFV GP on VSV pseudotype particles (Tai Forest virus (TAFV), UniProt Q66810 33-676)
T4 sequence: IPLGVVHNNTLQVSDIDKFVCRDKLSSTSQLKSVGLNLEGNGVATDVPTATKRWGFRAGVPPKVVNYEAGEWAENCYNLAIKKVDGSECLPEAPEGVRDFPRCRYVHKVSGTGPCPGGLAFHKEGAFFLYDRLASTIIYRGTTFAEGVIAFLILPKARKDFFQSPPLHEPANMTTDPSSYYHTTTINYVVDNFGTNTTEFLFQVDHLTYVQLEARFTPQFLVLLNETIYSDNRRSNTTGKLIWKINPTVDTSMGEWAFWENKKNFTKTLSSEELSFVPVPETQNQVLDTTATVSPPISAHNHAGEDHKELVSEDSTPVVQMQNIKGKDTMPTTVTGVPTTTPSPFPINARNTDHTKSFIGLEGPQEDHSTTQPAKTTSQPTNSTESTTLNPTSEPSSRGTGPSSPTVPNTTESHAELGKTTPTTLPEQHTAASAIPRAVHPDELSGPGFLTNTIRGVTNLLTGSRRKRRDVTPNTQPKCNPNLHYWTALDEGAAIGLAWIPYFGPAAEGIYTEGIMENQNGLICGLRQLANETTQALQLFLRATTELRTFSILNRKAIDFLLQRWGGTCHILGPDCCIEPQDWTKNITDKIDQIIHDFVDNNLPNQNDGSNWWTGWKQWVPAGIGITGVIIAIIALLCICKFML

B1: mAb PE-87 (antibody, V domains shown)
VH: QVQLVQSGVTLVQPGGSLRVSCAASGFTFSSYAMSWVRQAPGKGLEWVSAISGLGGSTYYADSVKGRFTISRDNSKNTLYLQMNSLRAEDTAVYYCAKDHRVWAAGYHFDYWGQGALVTVSS
VL: DIVLTQSPSTLSASVGDRVTITCRASQSISSWLAWYQQKPGEAPKLLISDASSLESGVPSRFSGSGSGTEFTLTISSLQPDDFATYYCQQYYSSPTFGGGTKVEIK
B2: mAb PE-24 (antibody, V domains shown)
VH: EVQLVESGGGLVQPGGSLRLSCAASGFTFSSYAMSWVRQAPGKGLEWVSEISGLGGSTYYADSAKGRFTISRDNSKSTLYLQMNSLRAEDTAVYYCAKDHRVWAPGYYFDHWGQGTLVTVSS
VL: B1 VL with E42K, S49Y, Y87F, Y92N, S93R
B3: mAb PE-16 (antibody, V domains shown)
VH: QVQLVQSGAEVTKPGASVKVSCKASGYTFTTYYMHWVRQAPGQGLEWVGIINPSGGITRYAQKFQGRVTLTRDTSTTTVYMELSSLRSEDTAVYYCARDRYPVLFATDYGMDVWGQGTTVTVSS
VL: DIVMTQSPATLSLSPGERATLSCRASQSVSGYLAWYQQKPGQAPRLLIYDASNRATGIPARFSGSGSGTDFTLTISSLEPEDFAVYYCQQRSIWPPGVTFGGGTKVEIK
B4: mAb PE-47 (antibody, V domains shown)
VH: EVQLVESGGGLVKPGGSLRLSCAASGFTFSNAWMSWVRQAPGEGLEWVGRIKSKTDGGTIDYAAPVKGRFTISRDDSKNTVYLQMTSLKTEDTAVYYCTTYTEDMQYFDWLLRGGETFDYWGQGTLVTVSS
VL: DIQMTQSPSSLSASVGDRVTITCRASQYISTYLNWYQQKPGKAPKLLIYAAYNLQSGVPSRFSGSGSGTDFTLTISSLQPEDFATYYCQQSYSTPGRYTFGQGTKVEIK
B5: mAb PE-05 (antibody, V domains shown)
VH: QVQLQESGGGLVKPGRSLRLSCTASGFTFGDYAMSWFRQAPGKGLEWVGFLRSKAYGGTAEYAASVKGRFTMSRDDSKSIAYLQMNSLKTEDTAVYFCTRDGFRGSSWGYSYYGMDVWGQGTTVTVSS
VL: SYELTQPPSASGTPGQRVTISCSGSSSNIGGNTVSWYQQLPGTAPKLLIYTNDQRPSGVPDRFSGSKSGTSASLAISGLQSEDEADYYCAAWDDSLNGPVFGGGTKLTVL

These binders were tested against T1, EBOV GP (assay: not given).

| Binder | Kd [nM] |
| --- | --- |
| B1 | < 0.01 |
| B2 | 1 |
| B3 | 0.16 |
| B4 | 3.5 |
| B5 | 44 |

What follows are binders tested against T2, EBOV GP on rVSV particles (assay: cell-based or functional assay).

| Binder | rVSV-GP neutralization IC50 [nM] |
| --- | --- |
| B1 | 0.5 |
| B2 | 2 |
| B3 | 0.2 |
| B5 | 9 |

The binders below were run against T3, SUDV GP on rVSV particles (assay: cell-based or functional assay).

| Binder | rVSV-GP neutralization IC50 [nM] |
| --- | --- |
| B1 | 0.3 |
| B2 | 0.5 |
| B5 | 34 |

What follows are binders tested against BDBV GP on rVSV particles (Bundibugyo virus (BDBV)) (assay: cell-based or functional assay).

| Binder | rVSV-GP neutralization IC50 [nM] |
| --- | --- |
| B1 | 0.5 |
| B2 | 1 |
| B3 | 0.6 |
| B5 | 4 |

The binders below were run against T4, TAFV GP on VSV pseudotype particles (assay: cell-based or functional assay).

| Binder | rVSV-GP neutralization IC50 [nM] |
| --- | --- |
| B1 | 1 |
| B2 | 1.5 |
| B3 | 4.8 |
| B5 | 0.8 |

These binders were tested against GP of authentic (wild-type) BDBV (Bundibugyo virus (BDBV)) (assay: cell-based or functional assay).

| Binder | Microneut. WT IC50 [nM] |
| --- | --- |
| B1 | 0.4 |
| B2 | 0.3 |
| B3 | 0.2 |
| B4 | 0.5 |
